The supplement of paper PMC7877785
± gives the uncertainty stated by the source.

Experiment: self-splicing fitness, log relative to wild type (ln ratio); higher = more splicing; Tetrahymena group I intron in knt gene, E. coli kanamycin selection, DiMSum; sequences stand for … in CUCUCU…GGAGGGAAAAGUUAUCAGGCAUGCACCUGGUAGCUAGUCUUUAAACCAAUAGAUUGCAUCGGUUUAAAAGGCAAGACCGUCAAAUUGCGGGAAAGGGGUCAACAGCCGUUCAGUACCAAGUCUCAGGGGAAACUUUGAGAUGGCCUUGCAAAGGGUAUGGUAAUAAGCUGACGGACAUGGUCCUAACCACGCAGCCAAGUCCUAAGUCAACAGAUCUUCUGUUGAUAUGGAUGCAGUUCACAGACUAAAUGUCGGUCGGGGAAGAUGUAUUCUUCUCAUAAGAUAUAGUCGGACCUCUCCUUAAUGGGAGCUAGCGGAUGAAGUGAUGCAACACUGGAGCCGCUGGGAACUAAUUUGUAUGCGAAAGUAUAUUGAUUAGUUUUGGAGUACUCGUGGUCG
Procedure, shortened: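 Colonies from six replicate transformations of E. coli BL21(DE3) were pooled and amplicon-sequenced on an Illumina HiSeq 2500. The library placed an intron with all eight P1ex-region nucleotides randomised inside the knt kanamycin-resistance gene on pET-22b(+), and cells grew overnight at 37°C or 30°C on LB agar with or without 25 μg/mL kanamycin (plus 100 μg/mL carbenicillin, 50 μM IPTG, 0.2% rhamnose). Fitness is the DiMSum error-weighted combination of wild-type-normalised replicate fold changes, kanamycin versus none.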

Sequence | self-splicing fitness (ln) (30 °C) | self-splicing fitness (ln) (37 °C)
GCUCAGCAAUAUUACGUGAA | -0.113 ± 0.063 | 0.231 ± 0.077
UCAGAGCAAUAUUACGUGCC | -2.62 ± 0.41 | 
GGCUAGCAAUAUUACGUGAA | -0.24 ± 0.086 | -0.383 ± 0.086
CCCAAGCAAUAUUACGUUCG | -2.11 ± 0.14 | -2.49 ± 0.2
CCGCAGCAAUAUUACGUUUC | -3.08 ± 0.31 | -2.93 ± 0.29
GUGCAGCAAUAUUACGACUA | -0.908 ± 0.24 | -0.48 ± 0.26
CUACAGCAAUAUUACGAACA | -2.94 ± 0.18 | -2.49 ± 0.21
CUAGAGCAAUAUUACGCGCG | -0.479 ± 0.11 | 0.603 ± 0.16
UGCAAGCAAUAUUACGCGGA | -2.23 ± 0.12 | -0.795 ± 0.12
AAAGAGCAAUAUUACGGCCG | -1.78 ± 0.18 | -0.0792 ± 0.23
CUCCAGCAAUAUUACGCUGU | -4.01 ± 0.34 | -2.97 ± 0.34
UGAAAGCAAUAUUACGGAGG | -3.75 ± 0.2 | -2.72 ± 0.26
CAUGAGCAAUAUUACGGCCA |  | -1.36 ± 0.41
AUCGAGCAAUAUUACGUGGG | -4.14 ± 0.33 | -2.42 ± 0.24
UGACAGCAAUAUUACGCACG | -0.996 ± 0.093 | -0.312 ± 0.14
GAAGAGCAAUAUUACGUCGG | -3.36 ± 0.3 | -2.37 ± 0.3
GUGAAGCAAUAUUACGCGCG | -0.674 ± 0.083 | 0.0224 ± 0.12
UCCCAGCAAUAUUACGGGUA | -0.837 ± 0.065 | -0.432 ± 0.071
AGCUAGCAAUAUUACGGUGC | -2.43 ± 0.17 | -2.03 ± 0.22
AUCUAGCAAUAUUACGGAAU | -1.87 ± 0.16 | -2.1 ± 0.19
CCAAAGCAAUAUUACGCCCA | -2.49 ± 0.33 | -2.72 ± 0.34
AGAUAGCAAUAUUACGUCUU | -2.52 ± 0.14 | -2.07 ± 0.17
CGGCAGCAAUAUUACGACAC | -3.52 ± 0.24 | -2.65 ± 0.21
AUCUAGCAAUAUUACGUUGU | -3.68 ± 0.17 | -2.27 ± 0.13
UGUCAGCAAUAUUACGCAUC | -2.61 ± 0.12 | -1.57 ± 0.11

Sequence | self-splicing fitness (ln) (30 °C) | self-splicing fitness (ln) (37 °C)
AAACAGCAAUAUUACGACCA | -0.58 ± 0.061 | -0.0342 ± 0.082
UUCUAGCAAUAUUACGACAU | -2.324 ± 0.019 | -1.57 ± 0.034
GAGAAGCAAUAUUACGGAGU | -3.2 ± 0.24 | 0.0737 ± 0.12
AUUCAGCAAUAUUACGUGAG | 0.00589 ± 0.07 | 0.325 ± 0.12
UCCGAGCAAUAUUACGUAUG | -2.36 ± 0.17 | -2.67 ± 0.24
AUAGAGCAAUAUUACGGCAU | 0.19 ± 0.084 | 0.738 ± 0.12
UGCAAGCAAUAUUACGGUAC | -4.35 ± 0.39 | -2.38 ± 0.21
GGACAGCAAUAUUACGCGCU | -1.92 ± 0.22 | -1.36 ± 0.34
CCUUAGCAAUAUUACGGCAU | -3.41 ± 0.19 | -2.88 ± 0.32
CUCUAGCAAUAUUACGUUCG | -3.54 ± 0.19 | -2.33 ± 0.18
UGGGAGCAAUAUUACGAUGA |  | -1.63 ± 0.42
GGCAAGCAAUAUUACGACCG | -0.371 ± 0.11 | -0.482 ± 0.15
CCUCAGCAAUAUUACGCACU | -3.26 ± 0.18 | -1.63 ± 0.2
AUGCAGCAAUAUUACGCGGU | -4.01 ± 0.21 | -1.85 ± 0.16
CCAAAGCAAUAUUACGAAAG | -1.14 ± 0.088 | -0.678 ± 0.11
AGCUAGCAAUAUUACGGAAG | -2.35 ± 0.086 | -1.34 ± 0.11
UAAGAGCAAUAUUACGCUGC |  | -1.15 ± 0.37
AACAAGCAAUAUUACGCUAA | -2.12 ± 0.11 | -0.523 ± 0.091
CGCCAGCAAUAUUACGCGCG | -3.57 ± 0.16 | -3.7 ± 0.27
CAACAGCAAUAUUACGAUGU | -2.57 ± 0.11 | -1.62 ± 0.11
UCAGAGCAAUAUUACGCCAG | -2.62 ± 0.3 | -0.0811 ± 0.28
CGGCAGCAAUAUUACGAAAG | -0.748 ± 0.1 | -0.538 ± 0.12
AAAGAGCAAUAUUACGGAGA | -2.99 ± 0.22 | -1.98 ± 0.21
GUAUAGCAAUAUUACGCUAA | -2.52 ± 0.2 | -1.57 ± 0.16
